Source: patent publication US20240110154A1, “Engineered NKT Cells for Expansion and In Vivo Preservation and Methods of Use for the Control of Tumor Cells” (Baylor College of Medicine, priority 2021, published 2024)

B1: Wnt3a: recombinant Wnt3a, Wnt ligand (protein, UniProt P56704 19-352, looked up)
Protein Wnt-3a: SYPIWWSLAVGPQYSSLGSQPILCASIPGLVPKQLRFCRNYVEIMPSVAEGIKIGIQECQHQFRGRRWNCTTVHDSLAIFGPVLDKATRESAFVHAIASAGVAFAVTRSCAEGTAAICGCSSRHQGSPGKGWKWGGCSEDIEFGGMVSREFADARENRPDARSAMNRHNNEAGRQAIASHMHLKCKCHGLSGSCEVKTCWWSQPDFRAIGDFLKDKYDSASEMVVEKHRESRGWVETLRPRYTYFKVPTERDLVYYEASPNFCEPNPETGSFGTRDRTCNVSSHGIDGCDLLCCGRGHNARAERRREKCRCVFHWCCYVSCQECTRVYDVHTCK

Tested on: NKTs
Assay: CD62L expression by flow cytometry on day 12 after antigenic stimulation of NKTs treated with Wnt activators
Format: cell-based, human
Details: for development of CD62L+ NKTs: day 12
Procedure: PBMC of healthy donors (at least 18 years old) are isolated by gradient centrifugation from buffy coats purchased from Gulf Coast Regional Blood Center. NKTs are purified by anti-iNKT microbeads (Miltenyi Biotec). The negative PBMC fraction is irradiated (40 Gy) and aliquoted. NKTs are stimulated with an aliquot of autologous PBMCs pulsed with 100 ng/niL αGalCer (Kyowa Hakko Kirin). Recombinant IL-2 (200 U/ml, National Cancer Institute Frederick) is added every other day in complete RPMI (HyClone RPMI 1640, 10% heat inactivated fetal bovine serum and 2 mM Glutamax). NKTs are expanded for 10 days and then re-stimulated with autologous PBMC (irradiated with 40 Gy) or Ramos cells as aAPC (irradiated with 100 Gy) when indicated. On day 3 after re-stimulation, 24 well, non-tissue culture plates are coated with retronectin (Takara Bio) and after washing inoculated with 1 ml of retroviral supernatant containing the constructs shown in FIG. 27 and described above and spun for 60 min at 4600 G. The viral supernatant is then removed and stimulated NKTs are added to the wells in complete media and 200 U/ml rhIL-2. Cells are removed from the plate after 48 h, washed, re-suspended at the concentration 10^6 cell/ml in complete RPMI with 200 U/ml IL-2 and plated for continued expansion. NKT-cell number is determined by Trypan Blue (Life technologies) counting. When indicated, NKTs or CAR-NKTs are labeled with CD62L-PE mAb (GREG-56, BD Biosciences) and anti-PE microbeads (Miltenyi) followed by magnetic sorting into CD62L+ and CD62L− subsets according to the manufacturer's instructions. The phenotype of the sorted cells was determined by FACS.
NKTs are stimulated as described in Example 2 but treated with three separate doses of PBS or 500 ng/mL Wnt3a given on day 0, 3 and 7 after antigenic stimulation. CD62L expression is examined by flow cytometry on day 12 after antigenic stimulation. […]
Following primary stimulation, NKTs are cultured with IL-2 or IL-2/IL-21 for 12 days. […] CD62L expression is analyzed by flow cytometry at the end of expansion.

Molecule	development of CD62L+ NKTs (one dose 5 μM on day 7 after antigenic stimulation vs DMSO, n=6 donors)	development of CD62L+ NKTs (500 ng/mL on day 0, 3 and 7 vs PBS, n=3 donors)	CD62L frequency (500 ng/ml on days 0, 1, 2, culture with IL-2 or IL-2/IL-21 for 12 days)
Nc1cccc(-c2cc3c(Oc4cccc(O)c4)ncnc3[nH]2)c1 [TWS119, reference compound]	promotes development of CD62L+ NKTs	–	–
B1	–	promotes development of CD62L+ NKTs	works additively with IL-21 to increase CD62L frequency
